B1: GpH7-A5/GpH7-B3 variant K334_08L/GpL16-k0 (antibody, human IgG1, kappa)
heavy 1: not shown
heavy 2: not shown
light: DIVMTQSPLSLPVTPGEPASISCQASESLVHSNRNTYLHWYLQKPGQSPQLLIYKVSNRFSGVPDRFSGSGSGTDFTLKISRVEAEDVGVYYCSQNTHVPPTFGQGTKVEIERTVAAPSVFIFPPSDEQLKSGTASVVCLLNNFYPREAKVQWKVDNALQSGNSQESVTEQDSKDSTYSLSSTLTLSKADYEKHKVYACEVTHQGLSSPVTKSFNRGEC
notes: heterodimerized, mutation in one H chain only; also called He Ab
B2: GpH7-A5/GpH7-B3 variant L234_15Y/GpL16-k0 (antibody, human IgG1, kappa)
heavy 1: not shown
heavy 2: not shown
light: B1 light
notes: as for B1
B3: GpH7-A5/GpH7-B3 variant S239_08L/GpL16-k0 (antibody, human IgG1, kappa)
heavy 1: not shown
heavy 2: not shown
light: B1 light
notes: as for B1
B4: GpH7-A5/GpH7-B3 variant A327_09D/GpL16-k0 (antibody, human IgG1, kappa)
heavy 1: not shown
heavy 2: not shown
light: B1 light
notes: as for B1
B5: GpH7-A5/GpH7-B3 variant I336_10E/GpL16-k0 (antibody, human IgG1, kappa)
heavy 1: not shown
heavy 2: not shown
light: B1 light
notes: as for B1
B6: GpH7-A5/GpH7-B3 variant E333_13S/GpL16-k0 (antibody, human IgG1, kappa)
heavy 1: not shown
heavy 2: not shown
light: B1 light
notes: as for B1
B7: GpH7-A5/GpH7-B3 variant Y296_18N/GpL16-k0 (antibody, human IgG1, kappa)
heavy 1: not shown
heavy 2: not shown
light: B1 light
notes: as for B1
B8: GpH7-A5/GpH7-B3 variant V266_07I/GpL16-k0 (antibody, human IgG1, kappa)
heavy 1: not shown
heavy 2: not shown
light: B1 light
notes: as for B1
B9: GpH7-A5/GpH7-B3 variant G236_14T/GpL16-k0 (antibody, human IgG1, kappa)
heavy 1: not shown
heavy 2: not shown
light: B1 light
notes: as for B1
B10: GpH7-A5/GpH7-B3 variant G236_04F/GpL16-k0 (antibody, human IgG1, kappa)
heavy 1: not shown
heavy 2: not shown
light: B1 light
notes: as for B1
B11: GpH7-A5/GpH7-B3 variant E333_04F/GpL16-k0 (antibody, human IgG1, kappa)
heavy 1: not shown
heavy 2: not shown
light: B1 light
notes: as for B1
B12: GpH7-A5/GpH7-B3 variant S337_09D/GpL16-k0 (antibody, human IgG1, kappa)
heavy 1: not shown
heavy 2: not shown
light: B1 light
notes: as for B1
B13: GpH7-A5/GpH7-B3 variant K326_12R/GpL16-k0 (antibody, human IgG1, kappa)
heavy 1: not shown
heavy 2: not shown
light: B1 light
notes: as for B1
B14: GpH7-A5/GpH7-B3 variant L234_20W/GpL16-k0 (antibody, human IgG1, kappa)
heavy 1: not shown
heavy 2: not shown
light: B1 light
notes: as for B1
B15: GpH7-A5/GpH7-B3 variant S324_02A/GpL16-k0 (antibody, human IgG1, kappa)
heavy 1: not shown
heavy 2: not shown
light: B1 light
notes: as for B1
B16: GpH7-A5/GpH7-B3 variant K334_13S/GpL16-k0 (antibody, human IgG1, kappa)
heavy 1: not shown
heavy 2: not shown
light: B1 light
notes: as for B1
B17: GpH7-A5/GpH7-B3 variant S239_09D/GpL16-k0 (antibody, human IgG1, kappa)
heavy 1: not shown
heavy 2: not shown
light: B1 light
notes: as for B1
B18: GpH7-A5/GpH7-B3 variant K326_07I/GpL16-k0 (antibody, human IgG1, kappa)
heavy 1: not shown
heavy 2: not shown
light: B1 light
notes: as for B1
B19: GpH7-A5/GpH7-B3 variant L328_20W/GpL16-k0 (antibody, human IgG1, kappa)
heavy 1: not shown
heavy 2: not shown
light: B1 light
notes: as for B1
B20: GpH7-A5/GpH7-B3 variant L235_20W/GpL16-k0 (antibody, human IgG1, kappa)
heavy 1: not shown
heavy 2: not shown
light: B1 light
notes: as for B1
B21: GpH7-A5/GpH7-B3 variant T335_16H/GpL16-k0 (antibody, human IgG1, kappa)
heavy 1: not shown
heavy 2: not shown
light: B1 light
notes: as for B1
B22: GpH7-A5/GpH7-B3 variant A330_19Q/GpL16-k0 (antibody, human IgG1, kappa)
heavy 1: not shown
heavy 2: not shown
light: B1 light
notes: as for B1
B23: GpH7-A5/GpH7-B3 variant L328_14T/GpL16-k0 (antibody, human IgG1, kappa)
heavy 1: not shown
heavy 2: not shown
light: B1 light
notes: as for B1
B24: GpH7-A5/GpH7-B3 variant S267_02A/GpL16-k0 (antibody, human IgG1, kappa)
heavy 1: not shown
heavy 2: not shown
light: B1 light
notes: as for B1
B25: GpH7-A5/GpH7-B3 variant K326_01G/GpL16-k0 (antibody, human IgG1, kappa)
heavy 1: not shown
heavy 2: not shown
light: B1 light
notes: as for B1
B26: GpH7-A5/GpH7-B3 variant I336_03V/GpL16-k0 (antibody, human IgG1, kappa)
heavy 1: not shown
heavy 2: not shown
light: B1 light
notes: as for B1
B27: GpH7-A5/GpH7-B3 variant T335_01G/GpL16-k0 (antibody, human IgG1, kappa)
heavy 1: not shown
heavy 2: not shown
light: B1 light
notes: as for B1
B28: GpH7-A5/GpH7-B3 variant T335_19Q/GpL16-k0 (antibody, human IgG1, kappa)
heavy 1: not shown
heavy 2: not shown
light: B1 light
notes: as for B1
B29: GpH7-A5/GpH7-B3 variant T335_07I/GpL16-k0 (antibody, human IgG1, kappa)
heavy 1: not shown
heavy 2: not shown
light: B1 light
notes: as for B1
B30: GpH7-A5/GpH7-B3 variant S337_10E/GpL16-k0 (antibody, human IgG1, kappa)
heavy 1: not shown
heavy 2: not shown
light: B1 light
notes: as for B1
B31: GpH7-A5/GpH7-B3 variant L328_06M/GpL16-k0 (antibody, human IgG1, kappa)
heavy 1: not shown
heavy 2: not shown
light: B1 light
notes: as for B1
B32: GpH7-A5/GpH7-B3 variant K334_19Q/GpL16-k0 (antibody, human IgG1, kappa)
heavy 1: not shown
heavy 2: not shown
light: B1 light
notes: as for B1
B33: GpH7-A5/GpH7-B3 variant T335_15Y/GpL16-k0 (antibody, human IgG1, kappa)
heavy 1: not shown
heavy 2: not shown
light: B1 light
notes: as for B1
B34: GpH7-A5/GpH7-B3 variant T335_13S/GpL16-k0 (antibody, human IgG1, kappa)
heavy 1: not shown
heavy 2: not shown
light: B1 light
notes: as for B1
B35: GpH7-A5/GpH7-B3 variant L235_04F/GpL16-k0 (antibody, human IgG1, kappa)
heavy 1: not shown
heavy 2: not shown
light: B1 light
notes: as for B1
B36: GpH7-A5/GpH7-B3 variant K334_16H/GpL16-k0 (antibody, human IgG1, kappa)
heavy 1: not shown
heavy 2: not shown
light: B1 light
notes: as for B1
B37: GpH7-A5/GpH7-B3 variant E333_14T/GpL16-k0 (antibody, human IgG1, kappa)
heavy 1: not shown
heavy 2: not shown
light: B1 light
notes: as for B1
B38: GpH7-A5/GpH7-B3 variant G236_15Y/GpL16-k0 (antibody, human IgG1, kappa)
heavy 1: not shown
heavy 2: not shown
light: B1 light
notes: as for B1
B39: GpH7-A5/GpH7-B3 variant I336_18N/GpL16-k0 (antibody, human IgG1, kappa)
heavy 1: not shown
heavy 2: not shown
light: B1 light
notes: as for B1
B40: GpH7-A5/GpH7-B3 variant E333_08L/GpL16-k0 (antibody, human IgG1, kappa)
heavy 1: not shown
heavy 2: not shown
light: B1 light
notes: as for B1
B41: GpH7-A5/GpH7-B3 variant L235_15Y/GpL16-k0 (antibody, human IgG1, kappa)
heavy 1: not shown
heavy 2: not shown
light: B1 light
notes: as for B1
B42: GpH7-A5/GpH7-B3 variant S239_10E/GpL16-k0 (antibody, human IgG1, kappa)
heavy 1: not shown
heavy 2: not shown
light: B1 light
notes: as for B1
B43: GpH7-A5/GpH7-B3 variant T335_10E/GpL16-k0 (antibody, human IgG1, kappa)
heavy 1: not shown
heavy 2: not shown
light: B1 light
notes: as for B1
B44: GpH7-A5/GpH7-B3 variant L234_04F/GpL16-k0 (antibody, human IgG1, kappa)
heavy 1: not shown
heavy 2: not shown
light: B1 light
notes: as for B1

The binders below were run against FcγRIIa H (human FcγRIIa, allotype with His at position 131), extracellular domain with C-terminal His tag (human, UniProt P12318 34-217) (assay: SPR (Biacore), antibody captured on antigen peptide chip, FcγR as analyte; relative to HeCon Ab GpH7-A5/GpH7-B3/GpL16-k0 = 100).

Row | He/Con_2aH [control = 100] | Binder
1 | 104 | B1
2 | 120 | B2
3 | 105 | B3
4 | 105 | B4
5 | 102 | B5
6 | 101 | B6
7 | 104 | B7
8 | 106 | B8
9 | 103 | B9
10 | 118 | B10
11 | 102 | B11
12 | 107 | B12
13 | 101 | B13
14 | 114 | B14
15 | 102 | B15
16 | 102 | B16
17 | 114 | B17
18 | 100 | B18
19 | 113 | B19
20 | 118 | B20
21 | 105 | B21
22 | 102 | B22

Row | He/Con_2aH [control = 100] | Binder
23 | 116 | B23
24 | 120 | B24
25 | 100 | B25
26 | 102 | B26
27 | 103 | B27
28 | 103 | B28
29 | 108 | B29
30 | 102 | B30
31 | 104 | B31
32 | 101 | B32
33 | 106 | B33
34 | 106 | B34
35 | 111 | B35
36 | 104 | B36
37 | 100 | B37
38 | 136 | B38
39 | 103 | B39
40 | 102 | B40
41 | 122 | B41
42 | 112 | B42
43 | 108 | B43
44 | 120 | B44

Reference: patent US20180155451A1 (published 2018)
